In US20090186415A1, “METHOD FOR PRODUCTION OF CYTOCHROME P450 WITH N-TERMINAL TRUNCATED P450 REDUCTASE” (priority 2006, published 2009):

T1: human CYP1B1 (Homo sapiens, UniProt Q16678)
T1 construct: made in house; host or cells: Saccharomyces cerevisiae JL20 / W303B and derived strains; microsomes
T1 sequence (Q16678 with tags, fused parts or gaps): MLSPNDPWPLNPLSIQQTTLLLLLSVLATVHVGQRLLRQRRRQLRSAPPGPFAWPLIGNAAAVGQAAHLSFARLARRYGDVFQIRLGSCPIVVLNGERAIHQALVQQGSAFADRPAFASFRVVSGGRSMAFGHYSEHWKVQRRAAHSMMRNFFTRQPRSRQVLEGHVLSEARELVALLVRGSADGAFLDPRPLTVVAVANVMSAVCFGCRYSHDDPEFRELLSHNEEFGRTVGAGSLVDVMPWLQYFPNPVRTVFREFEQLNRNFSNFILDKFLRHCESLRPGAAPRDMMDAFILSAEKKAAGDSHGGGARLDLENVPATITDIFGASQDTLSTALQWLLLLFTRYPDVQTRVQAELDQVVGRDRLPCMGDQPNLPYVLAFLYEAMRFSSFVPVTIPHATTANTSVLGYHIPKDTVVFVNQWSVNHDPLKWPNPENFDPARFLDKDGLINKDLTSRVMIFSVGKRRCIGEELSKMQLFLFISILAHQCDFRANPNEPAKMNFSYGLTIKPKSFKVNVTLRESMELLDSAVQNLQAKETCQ

B1: 675 bp GAL1p: truncated 675 bp yeast GAL1 promoter (SEQ ID No. 2) (nucleic acid)
DNA: CTTGAATTTTCAAAAATTCTTACTTTTTTTTTGGATGGACGCAAAGAAGTTTAATAATCATATTACATGGCATTACCACCATATACATATCCATATACATATCCATATCTAATCTTACTTATATGTTGTGGAAATGTAAAGAGCCCCATTATCTTAGCCTAAAAAAACCTTCTCTTTGGAACTTTCAGTAATACGCTTAACTGCTCATTGCTATATTGAAGTACGGATTAGAAGCCGCCGAGCGGGTGACAGCCCTCCGAAGGAAGACTCTCCTCCGTGCGTCCTCGTCTTCACCGGTCGCGTTCCTGAAACGCAGATGTGCCTCGCGCCGCACTGCTCCGAACAATAAAGATTCTACAATACTAGCTTTTATGGTTATGAAGAGGAAAAATTGGCAGTAACCTGGCCCCACAAACCTTCAAATGAACGAATCAAATTAACAACCATAGGATGATAATGCGATTAGTTTTTTAGCCTTATTTCTGGGGTAATTAATCAGCGAAGCGATGATTTTTGATCTATTAACAGATATATAAATGCAAAAACTGCATAACCACTTTAACTAATACTTTCAACATTTTCGGTTTGTATTACTTCTTATTCAAATGTAATAAAAGTATCAACAAAAAATTGTTAATATACCTCTATACTTTAACGTCAAGGAGAAAAAACCCC
modifications: /note = Positive strand of the 675 bp GAL1 promoter
B2: ΔN24hRD-cmyc: human P450 reductase lacking N-terminal 24 amino acids, with C-terminal c-myc epitope tag (SEQ ID NO: 27) (protein)
chain: MTDMILFSLIVGLLTYWFLFRKKKEEVPEFTKIQTLTSSVRESSFVEKMKKTGRNIIVFYGSQTGTAEEFANRLSKDAHRYGMRGMSADPEEYDLADLSSLPEIDNALVVFCMATYGEGDPTDNAQDFYDWLQETDVDLSGVKFAVFGLGNKTYEHFNAMGKYVDKRLEQLGAQRIFELGLGDDDGNLEEDFITWREQFWPAVCEHFGVEATGEESSIRQYELVVHTDIDAAKVYMGEMGRLKSYENQKPPFDAKNPFLAAVTTNRKLNQGTERHLMHLELDISDSKIRYESGDHVAVYPANDSALVNQLGKILGADLDVVMSLNNLDEESNKKHPFPCPTSYRTALTYYLDITNPPRTNVLYELAQYASEPSEQELLRKMASSSGEGKELYLSWVVEARRHILAILQDCPSLRPPIDHLCELLPRLQARYYSIASSSKVHPNSVHICAVVVEYETKAGRINKGVATNWLRAKEPVGENGGRALVPMFVRKSQLRLPFKATTPVIMVGPGTGWHPFIGFIQERAWLRQQGKEVGETLLYYGCRRSDEDYLYREELAQFHRDGALTQLNVAFSREQSHKVYVQHLLKQDREHLWKLIEGGAHIYVCGDARNMARDVQNTFYDIVAELGAMEHAQAVDYIKKLMTKGRYSLDVWSSSEQKLISEEDLNGSRL
modifications: C-terminal c-myc tag; /note = delta-N24hRD-cmyc tag human P450 reductase
B3: ΔN24hRD: human P450 reductase variant lacking the charged N-terminal 24 amino acids (SEQ ID NO: 26) (protein)
chain: MTDMILFSLIVGLLTYWFLFRKKKEEVPEFTKIQTLTSSVRESSFVEKMKKTGRNIIVFYGSQTGTAEEFANRLSKDAHRYGMRGMSADPEEYDLADLSSLPEIDNALVVFCMATYGEGDPTDNAQDFYDWLQETDVDLSGVKFAVFGLGNKTYEHFNAMGKYVDKRLEQLGAQRIFELGLGDDDGNLEEDFITWREQFWPAVCEHFGVEATGEESSIRQYELVVHTDIDAAKVYMGEMGRLKSYENQKPPFDAKNPFLAAVTTNRKLNQGTERHLMHLELDISDSKIRYESGDHVAVYPANDSALVNQLGKILGADLDVVMSLNNLDEESNKKHPFPCPTSYRTALTYYLDITNPPRTNVLYELAQYASEPSEQELLRKMASSSGEGKELYLSWVVEARRHILAILQDCPSLRPPIDHLCELLPRLQARYYSIASSSKVHPNSVHICAVVVEYETKAGRINKGVATNWLRAKEPVGENGGRALVPMFVRKSQLRLPFKATTPVIMVGPGTGWHPFIGFIQERAWLRQQGKEVGETLLYYGCRRSDEDYLYREELAQFHRDGALTQLNVAFSREQSHKVYVQHLLKQDREHLWKLIEGGAHIYVCGDARNMARDVQNTFYDIVAELGAMEHAQAVDYIKKLMTKGRYSLDVWS
modifications: /note = delta-N24hRD human P450 reductase

Columns and labels:
human CYP1B1 = target: T1, human CYP1B1; assay: Determination of P450 amounts via CO-difference spectra (CYP1B1 in yeast microsomes); conditions: strains JL20 and W303B with only endogenous yeast P450 reductase, average of 3 observations
Procedure: Determination of P450 amounts via CO-difference spectra: Difference spectra of microsomal preparations were measured in a spectrophotometer (Lambda 16, Perkin Elmer) using plastic disposable cuvettes. 850 μl of a solution containing 100 mM potassium phosphate and 20% glycerol (pH7.5) was added to the cuvette, and left for one minute. Then a ‘few grains’ of sodium hydrosulfite was added, mixed gently to prevent any bubble forming in the cuvette and left for another minute. 150 μl of mirosomes were added into the cuvette and the whole suspension was mixed gently. Two cuvettes (one containing sodium hydrosulphite without microsome and the other with microsome) were prepared and a baseline of light absorption of the buffer and microsome mixture was recorded in the dual-beam spectrophotometer from 400 nm to 500 nm. Carbon monoxide was bubbled slowly into one sample cuvette for about one minute, 1 bubble/second. Light absorption was recorded again from 400 nm to 500 nm. The concentration of cytochrome P450 in the cuvette was calculated from the absorption change at 450 nm relative to the absorbance change at 490 nm, using the formula below: […]

[1] = system: human NADPH P450 reductase; assay: MTT-based cytochrome P450 reductase assay, hRD variants in yeast microsomes and cytosolic fractions; type: biochemical; conditions: for microsome bound reductase activity: microsomes; for microsome bound reductase activity / cytosolic reductase activity: LEU2 locus of W303B; for cytosolic reductase activity: soluble cytosolic fraction
Procedure: Microsomes from the different yeast strains were prepared as described in Example 1.15. About 100 μg of microsomes, as measured by the Bio-Rad Bradford assay, were used and the increase in MTT reductase activity was followed over a time period of 400 seconds.
The different yeast strains were grown up in YPGE medium as described in Example 1.15. The cells were harvested and centrifuged to a pellet. 10% of cell pellets were re-suspended in 1 ml of buffer B (10 mM Tris-Cl pH7.5, 2 M Sorbitol, 0.1 mM EDTA pH8.0, 1 mM Pefabloc, 0.1 mM DTT) and re-suspended cells were treated with lyticase (3-5 units/O.D. of cells; 2200 units/mg; Sigma) for about an hour. The yeast cell wall was enzymatically removed using lyticase, the pellets were centrifuged and washed twice with ice cold PBS, finally re-suspended in 1 ml PBS. About 0.5 ml of glass beads were added to the suspension and the cells were vortexed three times with a 5 min interval on ice after each vortexing. The cells lysates were directly used for the MTT-based reductase assay. Equal amount of cells lysates (100 μg, as measured by the Bio-Rad Bradford assay) were used and the increase in MTT reductase activity was followed, as above, over a time period of 400 seconds.
The enzyme NADPH-cytochrome P450 reductase mediates the transfer of electrons from NADPH to cytochrome P450, other microsomal proteins and cytochrome c. It also catalyzes the reduction of many drugs and other compounds such as potassium ferricyanide, 2,6-dichloroindopheonl, 1,1-diphenyl-2-picrylhydrazyl (DPPH), and mitomycin c. Tetrazolium salts are used extensively in cell proliferation and cytotoxicity assays, enzyme assays, histochemical procedures and bacteriological screening. […] The compound 3-(4,5-dimethylthiazol-2-yl)-2,5-diphenyltetrazolium bromide (MTT) is a monotetrazolium salt. The reduction of MTT is one of the most frequently used methods for measuring cell proliferation and cytotoxiciy. Reduction of MTT by P450 reductase has been assessed as a method for monitoring yeast produced recombinant P450 reductase activity and the protocol was developed on the procedure published by Yim S-K, et al (Yim S-K., Y. C.-H. Ahn T., Hung H—C and Pan J-G. A continuous Spectrophotometric assay for NADPH-cytochrome P450 reductase activity using 3-(4,5 Dimethylthiazol-2-yl)-2,5-diphenyltetrazolium Bromide. Journal of Biology and Molecular Biology 38: 366-369, 2005). The principal advantage of this substance is that the reduction of MTT can be assayed directly in the reaction medium by a continuous spectrophotometirc method. The electrons released from NADPH by P450 reductase are transferred to MTT, and then the amounts of reduced MTT is assessed spectrophotometrically by measuring the increase in A610 values that is due to the formation of blue formazan. The extinction coefficient of MTT is 11.3 mM^−1 cm^−1. This method offers the advantages of short analysis time with the use of a relatively cheap commercial substrate. The classical assay uses recombinant cytochrome c as a substrate.
Disposable cuvettes were used for this experiment. 850 μl of potassium phosphate buffer was added to a cuvette. […] The cuvette was quickly placed into the spectrophotometer together with the blank cuvette and its contents (that contained all components as in the other test cuvette but not the microsomes or cell supernatant) and the increase in the values at 610 nm was measured for a time period of 400 seconds. […]

Molecule	Expression of CYP1B1 (amounts of P450 produced) from GAL promoter variants (human CYP1B1)	Expression of CYP1B1 (amounts of P450 produced) from GAL promoter variants (human CYP1B1; listed as 675 bp GAL1 promoter)	P450 reductase activity (MTT reduction) ([1]; microsomal and soluble (cytosolic) fractions, hRD variants in W303B)	microsome bound reductase activity [1]	cytosolic reductase activity [1]
B1	the best	the best expression			
B2			much more potent in reductase activity than ΔN24hRD	superior in its reductase activity than the wild type full-length protein	also higher
B3				minimal	most of the activity of ΔN24hRD exists in the soluble cytosolic part of the cell
